According to paper PMC9482650, “Quantitative fragmentomics allow affinity mapping of interactomes” (Nature Communications, 2022):

How the values were obtained:
Test in all cases: holdup assay
Design in all cases: key: below the threshold = too weak to quantify, mostly under pKd 3.1 to 4
Details in all cases: plain residues with an end cap or a label only (N-terminal biotin on a linker: ado-ado)
LIN7A, O14910 = target: T1, LIN7A, O14910
T1 sequence (O14910 103-200, limits assumed, looked up): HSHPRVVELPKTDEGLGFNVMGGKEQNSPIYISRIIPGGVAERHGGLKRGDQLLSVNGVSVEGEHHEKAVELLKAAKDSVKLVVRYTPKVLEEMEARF

ARHGEF12, Q9NZN5-2 = target: ARHGEF12, Q9NZN5-2
PCLO, Q9Y6V0 = target: T2, PCLO, Q9Y6V0
T2 sequence (Q9Y6V0 4491-4600, limits assumed, looked up): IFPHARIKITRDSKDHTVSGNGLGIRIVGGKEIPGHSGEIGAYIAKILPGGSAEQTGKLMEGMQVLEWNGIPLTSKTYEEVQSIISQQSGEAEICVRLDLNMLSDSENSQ

DLG2_2, Q15700 = target: DLG2_2, Q15700
GRIP2_3, Q9C0E4 = target: GRIP2_3, Q9C0E4
NOS1, P29475 = target: NOS1, P29475
GOPC, Q9HD26 = target: GOPC, Q9HD26
APBA1_1, Q02410 = target: T3, APBA1_1, Q02410
T3 sequence (Q02410 651-752, limits assumed, looked up): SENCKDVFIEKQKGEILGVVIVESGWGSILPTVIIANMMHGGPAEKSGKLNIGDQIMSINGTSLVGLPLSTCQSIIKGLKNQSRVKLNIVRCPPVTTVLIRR

Inadl_8, Q8NI35 = target: Inadl_8, Q8NI35
PARD3B_1, Q8TEW8 = target: T4, PARD3B_1, Q8TEW8
T4 sequence (Q8TEW8 196-299, limits assumed, looked up): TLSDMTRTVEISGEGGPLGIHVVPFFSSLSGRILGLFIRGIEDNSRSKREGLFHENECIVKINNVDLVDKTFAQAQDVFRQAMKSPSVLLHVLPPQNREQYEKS

PICK1, Q9NRD5 = target: PICK1, Q9NRD5
FRMPD2_2, Q68DX3 = target: FRMPD2_2, Q68DX3
Inadl_9, Q8NI35 = target: Inadl_9, Q8NI35
PDZRN4_1, Q6ZMN7 = target: PDZRN4_1, Q6ZMN7
Inadl_2, Q8NI35 = target: Inadl_2, Q8NI35
HTRA4, P83105 = target: T5, HTRA4, P83105
T5 sequence (P83105 378-476, limits assumed, looked up): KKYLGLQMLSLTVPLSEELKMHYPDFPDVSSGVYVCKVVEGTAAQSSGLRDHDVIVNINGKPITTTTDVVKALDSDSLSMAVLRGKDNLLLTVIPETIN

DLG5_1, Q8TDM6 = target: DLG5_1, Q8TDM6
APBA1_2, Q02410 = target: T6, APBA1_2, Q02410
T6 sequence (Q02410 742-832, limits assumed, looked up): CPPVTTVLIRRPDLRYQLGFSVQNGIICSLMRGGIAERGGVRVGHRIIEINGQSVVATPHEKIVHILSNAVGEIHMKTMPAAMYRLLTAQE

MAGI2_2, Q86UL8 = target: MAGI2_2, Q86UL8
GRIP1_3, Q9Y3R0 = target: T7, GRIP1_3, Q9Y3R0
T7 sequence (Q9Y3R0 247-346, limits assumed, looked up): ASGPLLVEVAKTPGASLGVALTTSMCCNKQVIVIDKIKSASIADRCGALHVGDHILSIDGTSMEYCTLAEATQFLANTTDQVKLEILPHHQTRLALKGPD

PARD3_3, Q8TEW0 = target: PARD3_3, Q8TEW0
LRRC7, Q96NW7 = target: T8, LRRC7, Q96NW7
T8 sequence (Q96NW7 1440-1537, limits assumed, looked up): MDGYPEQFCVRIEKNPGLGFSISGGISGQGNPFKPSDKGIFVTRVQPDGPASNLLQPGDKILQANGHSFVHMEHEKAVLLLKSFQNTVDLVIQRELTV

NHERF2_2, Q15599 = target: NHERF2_2, Q15599
TIAM2, Q8IVF5 = target: T9, TIAM2, Q8IVF5
T9 sequence (Q8IVF5 885-986, limits assumed, looked up): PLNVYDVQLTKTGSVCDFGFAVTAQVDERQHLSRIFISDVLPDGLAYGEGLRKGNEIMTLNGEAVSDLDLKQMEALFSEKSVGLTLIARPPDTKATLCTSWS

GRIP1_4, Q9Y3R0 = target: T10, GRIP1_4, Q9Y3R0
T10 sequence (Q9Y3R0 467-571, limits assumed, looked up): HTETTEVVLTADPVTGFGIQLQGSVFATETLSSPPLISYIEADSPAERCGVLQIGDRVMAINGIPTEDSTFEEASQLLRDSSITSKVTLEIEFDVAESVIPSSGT

GRIP1_2, Q9Y3R0 = target: T11, GRIP1_2, Q9Y3R0
T11 sequence (Q9Y3R0 145-248, limits assumed, looked up): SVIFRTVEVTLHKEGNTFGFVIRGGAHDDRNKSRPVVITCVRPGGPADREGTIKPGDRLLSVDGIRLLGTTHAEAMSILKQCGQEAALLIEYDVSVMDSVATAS

Sequence of PARD3_3, Q8TEW0 (Q8TEW0 582-685): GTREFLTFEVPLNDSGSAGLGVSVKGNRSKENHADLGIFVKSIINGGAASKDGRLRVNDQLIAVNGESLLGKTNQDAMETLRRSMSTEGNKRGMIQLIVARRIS
Sequence of DLG2_2, Q15700 (Q15700 189-283): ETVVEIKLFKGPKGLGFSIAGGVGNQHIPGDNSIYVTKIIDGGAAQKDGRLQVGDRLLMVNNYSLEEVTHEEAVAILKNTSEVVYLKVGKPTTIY
Sequence of GRIP2_3, Q9C0E4 (Q9C0E4 238-339): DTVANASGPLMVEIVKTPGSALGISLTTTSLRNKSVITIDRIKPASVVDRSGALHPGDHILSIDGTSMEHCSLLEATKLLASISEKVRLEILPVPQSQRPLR
Sequence of Inadl_8, Q8NI35 (Q8NI35 1425-1530): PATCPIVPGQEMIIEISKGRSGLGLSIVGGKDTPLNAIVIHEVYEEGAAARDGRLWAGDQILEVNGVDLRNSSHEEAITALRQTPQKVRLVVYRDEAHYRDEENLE
Sequence of NOS1, P29475 (P29475 9-101): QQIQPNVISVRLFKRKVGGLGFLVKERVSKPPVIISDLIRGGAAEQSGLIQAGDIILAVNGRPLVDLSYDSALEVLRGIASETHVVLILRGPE
Sequence of NHERF2_2, Q15599 (Q15599 142-238): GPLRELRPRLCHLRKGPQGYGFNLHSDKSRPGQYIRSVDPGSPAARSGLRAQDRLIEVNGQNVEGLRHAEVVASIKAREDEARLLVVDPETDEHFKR
Sequence of MAGI2_2, Q86UL8 (Q86UL8 410-522): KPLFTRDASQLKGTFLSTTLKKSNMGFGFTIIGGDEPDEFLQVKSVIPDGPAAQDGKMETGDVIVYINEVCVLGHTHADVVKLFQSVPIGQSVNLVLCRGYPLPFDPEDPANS
Sequence of PDZRN4_1, Q6ZMN7 (Q6ZMN7 213-318): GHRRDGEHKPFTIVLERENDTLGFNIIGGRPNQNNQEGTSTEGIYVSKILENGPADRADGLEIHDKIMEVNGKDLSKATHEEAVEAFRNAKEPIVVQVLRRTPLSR
Sequence of PICK1, Q9NRD5 (Q9NRD5 17-115): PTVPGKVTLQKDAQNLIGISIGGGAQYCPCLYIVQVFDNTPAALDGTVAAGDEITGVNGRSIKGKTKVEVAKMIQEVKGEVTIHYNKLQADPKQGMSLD
Sequence of DLG5_1, Q8TDM6 (Q8TDM6 617-713): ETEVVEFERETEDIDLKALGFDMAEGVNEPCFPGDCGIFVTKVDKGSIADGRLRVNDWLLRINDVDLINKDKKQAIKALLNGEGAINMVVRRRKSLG
Sequence of Inadl_9, Q8NI35 (Q8NI35 1530-1615): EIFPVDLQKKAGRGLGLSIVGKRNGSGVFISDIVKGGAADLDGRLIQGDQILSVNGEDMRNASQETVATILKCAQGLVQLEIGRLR
Sequence of Inadl_2, Q8NI35 (Q8NI35 238-335): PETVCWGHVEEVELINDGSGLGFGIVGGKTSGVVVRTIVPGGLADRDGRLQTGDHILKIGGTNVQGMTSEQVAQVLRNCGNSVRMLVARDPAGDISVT
Sequence of FRMPD2_2, Q68DX3 (Q68DX3 944-1038): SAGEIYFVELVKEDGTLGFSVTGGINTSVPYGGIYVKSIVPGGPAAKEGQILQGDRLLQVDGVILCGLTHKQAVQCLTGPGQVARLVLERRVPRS
Sequence of ARHGEF12, Q9NZN5-2 (Q9NZN5 other isoform, or with tags, fused parts or gaps): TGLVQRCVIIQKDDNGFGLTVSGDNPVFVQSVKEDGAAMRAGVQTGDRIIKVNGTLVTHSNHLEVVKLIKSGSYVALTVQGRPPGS

## GIKKITSTAL [RPS6KA3, P51812]
LIN7A, O14910
  pKd: below the threshold
ARHGEF12, Q9NZN5-2
  pKd: 5.58
PCLO, Q9Y6V0
  pKd: below the threshold
DLG2_2, Q15700
  pKd: 3.88
GRIP2_3, Q9C0E4
  pKd: 3.56
NOS1, P29475
  pKd: 4.03
GOPC, Q9HD26
  pKd: 4.5
APBA1_1, Q02410
  pKd: below the threshold
Inadl_8, Q8NI35
  pKd: 3.62
PARD3B_1, Q8TEW8
  pKd: 4.05
PICK1, Q9NRD5
  pKd: below the threshold
FRMPD2_2, Q68DX3
  pKd: 3.5
Inadl_9, Q8NI35
  pKd: below the threshold
PDZRN4_1, Q6ZMN7
  pKd: 4.6
Inadl_2, Q8NI35
  pKd: below the threshold
HTRA4, P83105
  pKd: below the threshold
DLG5_1, Q8TDM6
  pKd: below the threshold
APBA1_2, Q02410
  pKd: 4.1
MAGI2_2, Q86UL8
  pKd: 4.16
GRIP1_3, Q9Y3R0
  pKd: below the threshold
PARD3_3, Q8TEW0
  pKd: 3.51
LRRC7, Q96NW7
  pKd: below the threshold
NHERF2_2, Q15599
  pKd: 4.76
TIAM2, Q8IVF5
  pKd: below the threshold
GRIP1_4, Q9Y3R0
  pKd: 3.62
GRIP1_2, Q9Y3R0
  pKd: 3.5

## NNNVVKVDSV [MTNR1A, P48039]
LIN7A, O14910
  pKd: below the threshold
ARHGEF12, Q9NZN5-2
  pKd: below the threshold
PCLO, Q9Y6V0
  pKd: below the threshold
DLG2_2, Q15700
  pKd: below the threshold
GRIP2_3, Q9C0E4
  pKd: below the threshold
NOS1, P29475
  pKd: 3.86
GOPC, Q9HD26
  pKd: below the threshold
APBA1_1, Q02410
  pKd: below the threshold
Inadl_8, Q8NI35
  pKd: 4.22
PARD3B_1, Q8TEW8
  pKd: below the threshold
PICK1, Q9NRD5
  pKd: 4.06
FRMPD2_2, Q68DX3
  pKd: below the threshold
Inadl_9, Q8NI35
  pKd: below the threshold
PDZRN4_1, Q6ZMN7
  pKd: below the threshold
Inadl_2, Q8NI35
  pKd: below the threshold
HTRA4, P83105
  pKd: 3.82
DLG5_1, Q8TDM6
  pKd: below the threshold
APBA1_2, Q02410
  pKd: 3.92
MAGI2_2, Q86UL8
  pKd: below the threshold
GRIP1_3, Q9Y3R0
  pKd: below the threshold
PARD3_3, Q8TEW0
  pKd: below the threshold
LRRC7, Q96NW7
  pKd: below the threshold
NHERF2_2, Q15599
  pKd: below the threshold
TIAM2, Q8IVF5
  pKd: 3.77
GRIP1_4, Q9Y3R0
  pKd: below the threshold
GRIP1_2, Q9Y3R0
  pKd: below the threshold

## SVTSERETNI [SLC16A7, O60669]
LIN7A, O14910
  pKd: below the threshold
ARHGEF12, Q9NZN5-2
  pKd: 3.67
PCLO, Q9Y6V0
  pKd: below the threshold
DLG2_2, Q15700
  pKd: 3.95
GRIP2_3, Q9C0E4
  pKd: below the threshold
NOS1, P29475
  pKd: below the threshold
GOPC, Q9HD26
  pKd: below the threshold
APBA1_1, Q02410
  pKd: below the threshold
Inadl_8, Q8NI35
  pKd: below the threshold
PARD3B_1, Q8TEW8
  pKd: below the threshold
PICK1, Q9NRD5
  pKd: below the threshold
FRMPD2_2, Q68DX3
  pKd: below the threshold
Inadl_9, Q8NI35
  pKd: below the threshold
PDZRN4_1, Q6ZMN7
  pKd: below the threshold
Inadl_2, Q8NI35
  pKd: below the threshold
HTRA4, P83105
  pKd: below the threshold
DLG5_1, Q8TDM6
  pKd: below the threshold
APBA1_2, Q02410
  pKd: below the threshold
MAGI2_2, Q86UL8
  pKd: below the threshold
GRIP1_3, Q9Y3R0
  pKd: below the threshold
PARD3_3, Q8TEW0
  pKd: below the threshold
LRRC7, Q96NW7
  pKd: below the threshold
NHERF2_2, Q15599
  pKd: below the threshold
TIAM2, Q8IVF5
  pKd: 3.83
GRIP1_4, Q9Y3R0
  pKd: below the threshold
GRIP1_2, Q9Y3R0
  pKd: below the threshold

## GEDRSPPTAL [MKNK1, Q9BUB5]
LIN7A, O14910
  pKd: below the threshold
ARHGEF12, Q9NZN5-2
  pKd: below the threshold
PCLO, Q9Y6V0
  pKd: below the threshold
DLG2_2, Q15700
  pKd: below the threshold
GRIP2_3, Q9C0E4
  pKd: below the threshold
NOS1, P29475
  pKd: 3.8
GOPC, Q9HD26
  pKd: 3.5
APBA1_1, Q02410
  pKd: below the threshold
Inadl_8, Q8NI35
  pKd: below the threshold
PARD3B_1, Q8TEW8
  pKd: 3.63
PICK1, Q9NRD5
  pKd: below the threshold
FRMPD2_2, Q68DX3
  pKd: below the threshold
Inadl_9, Q8NI35
  pKd: below the threshold
PDZRN4_1, Q6ZMN7
  pKd: below the threshold
Inadl_2, Q8NI35
  pKd: below the threshold
HTRA4, P83105
  pKd: 3.8
DLG5_1, Q8TDM6
  pKd: below the threshold
APBA1_2, Q02410
  pKd: 4.34
MAGI2_2, Q86UL8
  pKd: below the threshold
GRIP1_3, Q9Y3R0
  pKd: below the threshold
PARD3_3, Q8TEW0
  pKd: below the threshold
LRRC7, Q96NW7
  pKd: below the threshold
NHERF2_2, Q15599
  pKd: 3.91
TIAM2, Q8IVF5
  pKd: below the threshold
GRIP1_4, Q9Y3R0
  pKd: below the threshold
GRIP1_2, Q9Y3R0
  pKd: below the threshold

## LPAVCYDIDI [PTTG2, Q9NZH5]
LIN7A, O14910
  pKd: below the threshold
ARHGEF12, Q9NZN5-2
  pKd: below the threshold
PCLO, Q9Y6V0
  pKd: below the threshold
DLG2_2, Q15700
  pKd: below the threshold
GRIP2_3, Q9C0E4
  pKd: below the threshold
NOS1, P29475
  pKd: below the threshold
GOPC, Q9HD26
  pKd: below the threshold
APBA1_1, Q02410
  pKd: below the threshold
Inadl_8, Q8NI35
  pKd: below the threshold
PARD3B_1, Q8TEW8
  pKd: below the threshold
PICK1, Q9NRD5
  pKd: below the threshold
FRMPD2_2, Q68DX3
  pKd: below the threshold
Inadl_9, Q8NI35
  pKd: below the threshold
PDZRN4_1, Q6ZMN7
  pKd: below the threshold
Inadl_2, Q8NI35
  pKd: below the threshold
HTRA4, P83105
  pKd: 3.96
DLG5_1, Q8TDM6
  pKd: below the threshold
APBA1_2, Q02410
  pKd: below the threshold
MAGI2_2, Q86UL8
  pKd: below the threshold
GRIP1_3, Q9Y3R0
  pKd: below the threshold
PARD3_3, Q8TEW0
  pKd: 4.29
LRRC7, Q96NW7
  pKd: below the threshold
NHERF2_2, Q15599
  pKd: below the threshold
TIAM2, Q8IVF5
  pKd: 3.87
GRIP1_4, Q9Y3R0
  pKd: below the threshold
GRIP1_2, Q9Y3R0
  pKd: below the threshold
